Experimental data taken from patent US20130136718A1.
Read-outs that look alike come from different tables or passages of the source.

Columns and labels:
CD20 (human) [1] = target: CD20 (human) (UniProt P11836); experiment: cell-based or functional assay
CD20 (human) [2] = target: CD20 (human) (UniProt P11836); experiment: cell-based or functional assay; remark: listed apart in the source

Chain of CD20 (human) (P11836 whole entry): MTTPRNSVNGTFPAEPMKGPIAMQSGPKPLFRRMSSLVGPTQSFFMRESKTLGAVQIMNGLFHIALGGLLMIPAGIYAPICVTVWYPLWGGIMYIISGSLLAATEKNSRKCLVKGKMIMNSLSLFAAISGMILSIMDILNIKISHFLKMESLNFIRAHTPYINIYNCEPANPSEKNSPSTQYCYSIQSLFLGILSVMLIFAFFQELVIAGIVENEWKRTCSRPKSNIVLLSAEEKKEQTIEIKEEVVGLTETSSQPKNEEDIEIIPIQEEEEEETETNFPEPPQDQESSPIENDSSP

Row | Substance | in vitro proliferation of Daudi cells, potency against non-targeting MAb-IFNα constructs (CD20 (human) [1]) [fold] | in vitro proliferation of Jeko-1 cells, low-concentration response, EC50 (CD20 (human) [1]) [pM] | in vitro proliferation of Jeko-1 cells, potency against 734-2b (CD20 (human) [1]) [fold] | in vitro proliferation of Jeko-1 cells, high-concentration response, EC50 (CD20 (human) [2]) [pM] | in vitro proliferation of Jeko-1 cells, EC50 (CD20 (human) [1]) [pM] | in vitro proliferation of Jeko-1 cells, EC50 (CD20 (human) [2]) [pM]
1 | 20-2b (from UniProt P01563 24-188) | 30 | 0.97 | 25 | 850 |  | 
2 | veltuzumab (antibody) |  |  |  |  | 1000 | 1500
